In article PMC2217137:
pKd: −log10 of the molar value.

Biological target: rabbit skeletal muscle Ca2+ release channel (ryanodine receptor), purified 30 S complex (rabbit) (UniProt P11716)
Assay: single-channel recording in planar lipid bilayers

Substance | pKd | time constant of dwell times in the burst (toxin-free) state at 100 nM IpTxa [ms] | time constant of dwell times in the subconductance (toxin-bound) state [ms] | K m (of P substate against [IpTxa]) [nM]
imperatoxin activator (IpTxa), native, purified from Pandinus imperator venom (from UniProt P59868 1-33) (peptide) | 7.74 | 965 | 3380 | –
imperatoxin activator (IpTxa), synthetic (from UniProt P59868 1-33) (peptide) | – | – | – | 2
